According to patent US20250075006A1 (SHANDONG SIMCERE BIOPHARMACEUTICAL, published 2025):

Experiments:
[1] = target: T1, human GUCY2C protein, full length, on cells (human, UniProt P25092 24-1073); test: FACS on 293T-hGUCY2C cells, MFI
T1 construct: whole, on cells; also called endogenous tumor cells HT55
Procedure: (§1) Then a complete medium was added to stop the digestion, and the cells were blown into a single cell suspension. After counting, the cells were centrifuged, and the cell pellet was resuspended to 2×10⁶ cells/mL in an FACS buffer (PBS+2% fetal bovine serum), and added to a 96-well FACS reaction plate at 100 μL/well. The plate was centrifuged, and the supernatant was discarded. An antibody sample to be tested (diluted in a 5-fold gradient from a starting concentration of 100 nM) was added at 50 μL/well and uniformly mixed with the cells, and the mixture was incubated at 4° C. for 1 h. […] The results were tested and analyzed by FACS (FACS Canto™, purchased from BD) after the plate was centrifuged and washed 3 times with a PBS buffer and resuspended with 100 μL of PBS. Data analysis was performed by software (FlowJo) to obtain the mean fluorescence intensity (MFI) of the cells. Then, analysis was performed by software (GraphPad Prism8), data were fitted, and EC50 values were calculated. As shown in A-C in FIG. 14, PF1608-hIgG1 binds strongly to GUCY2C at the protein level, but weakly at the cellular level. The humanized antibodies of the present application are all capable of binding effectively to recombinant cells expressing human GUCY2C protein and substantially maintain the equivalent binding ability of the recombinant antibodies.

[2] = target: T1, human GUCY2C protein, full length, on …; test: FACS on 293T-hGUCY2C cells, MFI; remark: listed apart in the source
Procedure: as §1

[3] = target: T1, human GUCY2C protein, full length, on …; test: FACS on HT55 tumor cells (endogenous GUCY2C), MFI
[4] = target: T1, human GUCY2C protein, full length, on …; test: FACS on 293T-hGUCY2C cells, MFI; remark: listed apart in the source
Procedure: as §1

[5] = target: T1, human GUCY2C protein, full length, on …; test: FACS on 293T-hGUCY2C cells, MFI; remark: listed apart in the source
Procedure: as §1, with “3-fold” for “5-fold”, “calculated.” for “calculated. As shown in A-C in FIG. 14, PF1608-hIgG1 binds strongly to GUCY2C at the protein level, but weakly at the cellular level. The humanized antibodies of the present application are all capable of binding effectively to recombinant cells expressing human GUCY2C protein and substantially maintain the equivalent binding ability of the recombinant antibodies.”

[6] = target: T1, human GUCY2C protein, full length, on …; test: FACS on HT55 tumor cells (endogenous GUCY2C), MFI; remark: listed apart in the source
[7] = target: T1, human GUCY2C protein, full length, on …; test: FACS on HT55 tumor cells (endogenous GUCY2C), MFI; remark: listed apart in the source
Procedure: as §1, with “3-fold” for “5-fold”, “calculated.” for “calculated. As shown in A-C in FIG. 14, PF1608-hIgG1 binds strongly to GUCY2C at the protein level, but weakly at the cellular level. The humanized antibodies of the present application are all capable of binding effectively to recombinant cells expressing human GUCY2C protein and substantially maintain the equivalent binding ability of the recombinant antibodies.”
The binding of the recombinant antibody to the endogenous tumor cell HT55 was detected in the same manner.

[8] = target: T1, human GUCY2C protein, full length, on …; test: FACS on HT55 tumor cells (endogenous GUCY2C), MFI; remark: listed apart in the source

T1 sequence (P25092 24-1073): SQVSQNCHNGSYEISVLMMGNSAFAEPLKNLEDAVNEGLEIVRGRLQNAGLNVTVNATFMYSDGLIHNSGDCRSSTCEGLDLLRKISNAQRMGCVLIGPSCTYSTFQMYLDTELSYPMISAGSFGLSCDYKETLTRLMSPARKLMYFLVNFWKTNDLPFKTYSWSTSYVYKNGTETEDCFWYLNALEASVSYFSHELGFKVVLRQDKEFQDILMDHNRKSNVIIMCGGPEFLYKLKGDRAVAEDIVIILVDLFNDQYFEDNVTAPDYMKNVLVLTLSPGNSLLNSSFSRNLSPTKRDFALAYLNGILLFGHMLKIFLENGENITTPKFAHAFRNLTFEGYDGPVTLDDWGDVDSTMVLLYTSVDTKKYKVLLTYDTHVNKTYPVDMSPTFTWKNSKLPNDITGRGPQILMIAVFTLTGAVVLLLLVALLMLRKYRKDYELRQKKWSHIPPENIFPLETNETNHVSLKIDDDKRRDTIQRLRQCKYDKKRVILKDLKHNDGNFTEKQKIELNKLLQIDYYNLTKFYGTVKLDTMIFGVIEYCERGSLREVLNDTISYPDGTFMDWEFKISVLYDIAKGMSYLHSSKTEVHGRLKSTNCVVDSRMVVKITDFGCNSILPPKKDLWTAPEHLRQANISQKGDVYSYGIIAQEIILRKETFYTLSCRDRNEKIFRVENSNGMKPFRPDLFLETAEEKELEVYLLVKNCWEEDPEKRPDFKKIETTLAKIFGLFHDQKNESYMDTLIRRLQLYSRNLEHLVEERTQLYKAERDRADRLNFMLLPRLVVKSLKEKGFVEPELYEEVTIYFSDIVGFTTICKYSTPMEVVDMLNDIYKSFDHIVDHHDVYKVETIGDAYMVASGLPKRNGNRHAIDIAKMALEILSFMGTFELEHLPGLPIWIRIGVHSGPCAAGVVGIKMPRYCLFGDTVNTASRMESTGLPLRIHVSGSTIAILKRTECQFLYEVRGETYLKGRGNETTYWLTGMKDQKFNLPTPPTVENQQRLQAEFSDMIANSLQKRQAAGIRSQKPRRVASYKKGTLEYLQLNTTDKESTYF

- EC50 (read off the curve) [1]: ~1 nM
- EC50 (read off the curve) [2]: ~1 nM
- EC50 (read off the curve) [3]: ~0.3 nM
- EC50 (read off the curve) [4]: ~1 nM
- EC50 (read off the curve) [5]: ~0.9 nM
- EC50 (read off the curve) [6]: ~0.3 nM
- EC50 (read off the curve) [7]: ~0.3 nM
- EC50 (read off the curve) [8]: ~0.3 nM
B1: 5F9-hIgG1 (antibody, V domains shown)
VH: QVQLQQWGAGLLKPSETLSLTCAVFGGSFSGYYWSWIRQPPGKGLEWIGEINHRGNTNDNPSLKSRVTISVDTSKNQFALKLSSVTAADTAVYYCARERGYTYGNFDHWGQGTLVTVSS
VL: EIVMTQSPATLSVSPGERATLSCRASQSVSRNLAWYQQKPGQAPRLLIYGASTRATGIPARFSGSGSGTEFTLTIGSLQSEDFAVYYCQQYKTWPRTFGQGTNVEIKR
notes: also called positive control antibody
